The values below come from patent publication US20250019440A1 (Zymeworks, published 2025).

T1: Mouse CLDN18 A2.1 (mouse, UniProt P56857 10-264)
T1 construct: On transfected HEK293-6E cells; also called Mouse CLDN18 2.1; mouse CLDN18.2 ortholog
T1 chain: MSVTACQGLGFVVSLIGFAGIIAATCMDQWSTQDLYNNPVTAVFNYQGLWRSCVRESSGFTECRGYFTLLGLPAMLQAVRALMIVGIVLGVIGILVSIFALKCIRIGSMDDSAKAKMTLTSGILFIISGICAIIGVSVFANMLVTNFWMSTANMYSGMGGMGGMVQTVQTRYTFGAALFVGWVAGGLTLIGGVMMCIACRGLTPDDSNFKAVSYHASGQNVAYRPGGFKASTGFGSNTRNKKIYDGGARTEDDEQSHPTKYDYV

T2: Cynomolgus monkey CLDN18 (cynomolgus monkey)
T2 construct: On transfected HEK293-6E cells; also called Cyno CLDN18; cynomologus monkey CLDN18.2 ortholog
T2 chain: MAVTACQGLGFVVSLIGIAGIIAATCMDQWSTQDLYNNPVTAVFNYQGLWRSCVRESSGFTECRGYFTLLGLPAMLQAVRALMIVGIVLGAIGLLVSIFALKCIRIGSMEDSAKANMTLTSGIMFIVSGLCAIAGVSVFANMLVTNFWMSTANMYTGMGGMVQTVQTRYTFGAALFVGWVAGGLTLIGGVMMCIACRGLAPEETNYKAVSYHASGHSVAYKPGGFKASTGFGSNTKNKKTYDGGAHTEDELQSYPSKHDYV

B1: v37407 (antibody, human IgG1, V domains shown)
VH: QVQLVESGGGLVQPGGSLRLSCSVSGIDLSSNPMIWVRQAPGKGLEYIGIIDTDGSTYYADWAKGRFTISKDSTTVYLQMNSLRAEDTAVYYCARRLHGSSNGYYDDLWGQGTLVTVSS
VL: DGQMTQSPSSVSASVGDRVTITCQASQSIYSYLSWYQQKPGQRPKLLIYKASTLASGVPSRFSGSGSGTDFTLTISSVQPEDFATYYCQQGYTVTNVDKNTFGGGTKVEIK
notes: Humanized, recombinant human IgG1-based monoclonal antibody; also called H4-L4
B2: v37409 (antibody, human IgG1, V domains shown)
VH: QVQLVESGGGLVQPGGSLRLSCSVSGIDLSSNPMIWVRQAPGKGLEYIGIIDTDGSTYYADWAKGRFTISKDSSKNTVYLQMNSLRAEDTAVYYCARRLHGSSNGYYDDLWGQGTLVTVSS
VL: B1 VL
notes: Humanized, recombinant human IgG1-based monoclonal antibody; also called H2-L4
B3: v37410 (antibody, human IgG1, V domains shown)
VH: B2 VH with E46Q
VL: B1 VL
notes: Humanized, recombinant human IgG1-based monoclonal antibody; also called H3-L4
B4: v37408 (antibody, human IgG1, V domains shown)
VH: B1 VH
VL: B1 VL with F83A, I110V
notes: Humanized, recombinant human IgG1-based monoclonal antibody; also called H4-L2
B5: v37411 (antibody, human IgG1, V domains shown)
VH: B1 VH with E46Q, M80I, L83P
VL: B1 VL
notes: Humanized, recombinant human IgG1-based monoclonal antibody; also called H5-L4
B6: v38740 (other)
heavy 1: EVQLVESGGGLVQPGGSLRLSCAASGVTFNYYGMSWIRQAPGKGLEWVASITSSGGRIYYPDSVKGRFTISRENTQKTLYLQMNSLRAEDTAVYYCTLDGRDGWVAYWGQGTLVTVSSASTKGPSVFPLAPSSKSTSGGTAALGCLVKDYFPEPVTVSWNSGALTSGVHTFPAVLQSSGLYSLSSVVTVPSSSLGTQTYICNVNHKPSNTKVDKKVEPKSCDKTHTCPPCPAPEAAGGPSVFLFPPKPKDTLMISRTPEVTCVVVSVSHEDPEVKFNWYVDGVEVHNAKTKPREEQYNSTYRVVSVLTVLHQDWLNGKEYKCKVSNKALPAPIEKTISKAKGQPREPQVYVYPPSRDELTKNQVSLTCLVKGFYPSDIAVEWESNGQPENNYKTTPPVLDSDGSFALVSKLTVDKSRWQQGNVFSCSVMHEALHNHYTQKSLSLSPGGGGGSGDRPWNPPTFSPALLVVTEGDNATFTCSFSNTSESFVLNWYRMSPSNQTDKLAAFPEDRSQPGQDARFRVTQLPNGRDFHMSVVRARRNDSGTYLCGAISLAPKAQIKESLRAELRVTE
light: NFMLTQPHSVSESPGKTVTISCKRNTGNIGSNYVNWYQQHEGSSPTTIIYRNDKRPDGVSDRFSGSIDRSSKSASLTISNLKTEDEADYFCQSYSSGFIFGGGTKLTVLGQPKAAPSVTLFPPSSEELQANKATLVCLISDFYPGAVTVAWKADSSPVKAGVETTTPSKQSNNKYAASSYLSLTPEQWKSHRSYSCQVTHEGSTVEKTVAPTECS
heavy 2: QVQLVESGGGLVQPGGSLRLSCSVSGIDLSSNPMIWVRQAPGKGLQYIGIIDTDGSTYYADWAKGRFTISKDSTTVYLQINSPRAEDTAVYYCARRLHGSSNGYYDDLWGQGTLVTVSSGGGGSGGGGSGGGGSGGGGSDGQMTQSPSSVSASVGDRVTITCQASQSIYSYLSWYQQKPGQRPKLLIYKASTLASGVPSRFSGSGSGTDFTLTISSVQPEDFATYYCQQGYTVTNVDKNTFGGGTKVEIKAAEPKSSDKTHTCPPCPAPEAAGGPSVFLFPPKPKDTLMISRTPEVTCVVVSVSHEDPEVKFNWYVDGVEVHNAKTKPREEQYNSTYRVVSVLTVLHQDWLNGKEYKCKVSNKALPAPIEKTISKAKGQPREPQVYVLPPSRDELTKNQVSLLCLVKGFYPSDIAVEWESNGQPENNYLTWPPVLDSDGSFFLYSKLTVDKSRWQQGNVFSCSVMHEALHNHYTQKSLSLSPG
notes: CD3 Fab x Cldn18.2 scFv Fc, wildtype (WT) PD-1 attached to HC1 (C-term)
B7: v38744 (other)
heavy 1: EVQLVESGGGLVQPGGSLRLSCAASGVTFNYYGMSWIRQAPGKGLEWVASITSSGGRIYYPDSVKGRFTISRENTQKTLYLQMNSLRAEDTAVYYCTLDGRDGWVAYWGQGTLVTVSSASTKGPSVFPLAPSSKSTSGGTAALGCLVKDYFPEPVTVSWNSGALTSGVHTFPAVLQSSGLYSLSSVVTVPSSSLGTQTYICNVNHKPSNTKVDKKVEPKSCDKTHTCPPCPAPEAAGGPSVFLFPPKPKDTLMISRTPEVTCVVVSVSHEDPEVKFNWYVDGVEVHNAKTKPREEQYNSTYRVVSVLTVLHQDWLNGKEYKCKVSNKALPAPIEKTISKAKGQPREPQVYVYPPSRDELTKNQVSLTCLVKGFYPSDIAVEWESNGQPENNYKTTPPVLDSDGSFALVSKLTVDKSRWQQGNVFSCSVMHEALHNHYTQKSLSLSPGGGGGSGQVQLVESGGGLVQPGGSLRLSCSVSGIDLSSNPMIWVRQAPGKGLQYIGIIDTDGSTYYADWAKGRFTISKDSTTVYLQINSPRAEDTAVYYCARRLHGSSNGYYDDLWGQGTLVTVSSGGGGSGGGGSGGGGSGGGGSDGQMTQSPSSVSASVGDRVTITCQASQSIYSYLSWYQQKPGQRPKLLIYKASTLASGVPSRFSGSGSGTDFTLTISSVQPEDFATYYCQQGYTVTNVDKNTFGGGTKVEIK
light: NPPTFSPALLVVTEGDNATFTCSFSNTSESFVLNWYRMSPSNQTDKLAAFPEDRSQPGQDARFRVTQLPNGRDFHMSVVRARRNDSGTYLCGAISLAPKAQIKESLRAELRVTEGGGGSGNFMLTQPHSVSESPGKTVTISCKRNTGNIGSNYVNWYQQHEGSSPTTIIYRNDKRPDGVSDRFSGSIDRSSKSASLTISNLKTEDEADYFCQSYSSGFIFGGGTKLTVLGQPKAAPSVTLFPPSSEELQANKATLVCLISDFYPGAVTVAWKADSSPVKAGVETTTPSKQSNNKYAASSYLSLTPEQWKSHRSYSCQVTHEGSTVEKTVAPTECS
heavy 2: B6 heavy 2
notes: CD3 Fab with C-term Cldn18.2 scFv x Cldn18.2 scFv Fc with wildtype (WT) PD-1 attached to CD3 LC (N-term)
B8: v38741 (other)
heavy 1: B7 heavy 1
light: NPPTFSPALLVVTEGDNATFTCSFSNTSESFRLVWHRESPGYETDTLASFPEDRSTPLPDARFRVTQLPNGRDFHMSVVRARRNDSGTYVCGAIAFHPVIQIKESLRAELRVTEGGGGSGNFMLTQPHSVSESPGKTVTISCKRNTGNIGSNYVNWYQQHEGSSPTTIIYRNDKRPDGVSDRFSGSIDRSSKSASLTISNLKTEDEADYFCQSYSSGFIFGGGTKLTVLGQPKAAPSVTLFPPSSEELQANKATLVCLISDFYPGAVTVAWKADSSPVKAGVETTTPSKQSNNKYAASSYLSLTPEQWKSHRSYSCQVTHEGSTVEKTVAPTECS
heavy 2: B6 heavy 2
B9: v38743 (other)
heavy 1: B7 heavy 1
light: B7 light with A100L
heavy 2: B6 heavy 2

Residue numbers refer to the chain shown, from its start.

The target in one assay is T3, Human CLDN18.2 (human).
T3 construct: On transfected HEK293-6E cells; also called Claudin18.2
The assay can be described thus: FACS on transfected HEK293-6E cells, 4 parameter logistic fit.
The molecule B1 returned a Bmax of 2040 and an EC50 of 1.54 nM.

In the case of B2, the Bmax worked out at 1960 and the EC50 was determined as 1.22 nM.

As to B3, the Bmax was found to be 1910 and a half-maximal response (EC50) required 0.97 nM.

With B4, the Bmax amounted to 2190 and the EC50 was determined as 1.87 nM.

B5 registered a Bmax of 2170 and an EC50 of 1.05 nM.

For the next assay, the target named is T1, Mouse CLDN18 A2.1. Described as above.
In the case of B1, the Bmax turned out to be 1540 and a half-maximal effect (EC50) was put at 0.8 nM.

B2 displayed a Bmax of 1530 and an EC50 of 0.89 nM.

Regarding B3, the Bmax came out at 1690 and the EC50 worked out at 1.02 nM.

The molecule B4 had a Bmax of 1920 and an EC50 of 2.65 nM.

For B5, the Bmax amounted to 1790 and the EC50 came out at 1.03 nM.

In the next assay the target is T2, Cynomolgus monkey CLDN18. The assay is described as above.
As to B1, the Bmax was found to be 1410 and the EC50 worked out at 0.24 nM.

Consider B2, for which the Bmax stood at 1500 and the EC50 is 0.35 nM.

Molecule B3 gave a Bmax of 1500 and an EC50 of 0.31 nM.

B4 displayed a Bmax of 1520 and a 50% effective concentration (EC50) of 0.36 nM.

As to B5, the Bmax was determined as 1730 and a half-maximal response (EC50) required 0.37 nM.

For another assay, the target named is T4, Human CLDN18.1 (human, UniProt P56856 1-261).
T4 construct: On transfected HEK293-6E cells
T4 sequence (P56856 whole entry): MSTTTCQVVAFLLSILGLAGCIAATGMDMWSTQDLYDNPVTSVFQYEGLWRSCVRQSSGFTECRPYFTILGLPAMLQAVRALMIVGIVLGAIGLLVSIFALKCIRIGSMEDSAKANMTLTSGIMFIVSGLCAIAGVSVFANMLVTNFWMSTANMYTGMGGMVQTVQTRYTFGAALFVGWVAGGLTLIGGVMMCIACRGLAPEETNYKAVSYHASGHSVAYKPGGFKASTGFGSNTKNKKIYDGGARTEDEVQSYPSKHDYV
Put plainly: FACS, Expi293F supernatants on transfected HEK293-6E cells.
Take B1: the binding result is recorded as “no binding”.

B2: the binding result was “no binding”.

In the case of B3, the binding result is given as “no binding”.

Regarding B4, the binding result is “no binding”.

Regarding B5, the binding result is “no binding”.

A further assay deals with Human CD3 (recombinant) (human). Put plainly: SPR, CD3 amine-coupled, variant as analyte, 1:1 model. (In general: Surface plasmon resonance follows binding to a sensor surface in real time, without labels.)
Sequence of Human CD3 (recombinant) (human) (chain, as listed by the source): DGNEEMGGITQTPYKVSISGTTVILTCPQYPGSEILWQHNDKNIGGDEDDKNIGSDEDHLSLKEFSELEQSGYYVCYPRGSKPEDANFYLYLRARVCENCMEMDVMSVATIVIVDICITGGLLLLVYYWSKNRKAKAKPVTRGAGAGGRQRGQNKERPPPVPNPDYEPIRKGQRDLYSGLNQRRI
In the case of B6, the Kd was 30 nM.

Regarding B7, the Kd stood at 190 nM.

Turning to B8, the Kd turned out to be 18 nM.

For B9, the Kd came to 120 nM.

A further assay deals with T5, Human PD-L1 (human, UniProt Q9NZQ7 19-239).
T5 construct: Amine-coupled to a CM5 chip for SPR; also called recombinant human PD-L1
T5 sequence (Q9NZQ7 19-239 limits assumed): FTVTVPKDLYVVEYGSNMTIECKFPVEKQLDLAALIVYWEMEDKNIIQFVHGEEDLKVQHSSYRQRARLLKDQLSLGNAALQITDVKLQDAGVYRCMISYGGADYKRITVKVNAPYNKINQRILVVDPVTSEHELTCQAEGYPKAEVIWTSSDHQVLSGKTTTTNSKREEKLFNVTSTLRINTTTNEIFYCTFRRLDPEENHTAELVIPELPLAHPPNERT
The assay can be described thus: SPR, PD-L1 amine-coupled, variant as analyte, 1:1 model.
Take B6: the Kd came out at 510 nM.

B7 showed a Kd of 1900 nM.

Take B8: the Kd turned out to be 95 nM.

On to B9, for which the Kd stood at 220 nM.

In general, EC50 refers to the midpoint of the concentration-response curve. The term Kd denotes the free concentration of one partner at which half of the binding sites on the other are occupied at equilibrium, for simple one-to-one binding.
